The source of these data is publication doi:10.64898/2025.12.17.694860 (2025).

This assay deals with T1, Trypanosoma brucei enolase (Trypanosoma brucei).
T1 chain: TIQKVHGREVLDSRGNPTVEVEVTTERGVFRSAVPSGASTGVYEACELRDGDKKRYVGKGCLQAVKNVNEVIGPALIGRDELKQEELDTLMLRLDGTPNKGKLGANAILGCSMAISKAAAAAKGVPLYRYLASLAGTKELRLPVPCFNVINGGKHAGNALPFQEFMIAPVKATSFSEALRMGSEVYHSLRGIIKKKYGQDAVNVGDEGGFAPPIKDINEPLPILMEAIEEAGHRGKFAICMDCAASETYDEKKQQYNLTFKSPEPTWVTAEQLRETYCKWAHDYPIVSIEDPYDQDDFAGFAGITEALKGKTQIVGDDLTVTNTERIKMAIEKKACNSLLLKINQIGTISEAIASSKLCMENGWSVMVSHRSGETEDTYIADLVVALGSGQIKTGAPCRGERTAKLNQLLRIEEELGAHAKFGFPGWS
Briefly: ITC.

B1: sdAbR1-10 (VHH)
VHH: QVQLQESGGGLVQPGGSLRLSCAAPGSIFSIFSGNIMGWYRQAPGKQRDFVASISSGGATNYADSVKGRFTISRDNAKNTVYLQMNNLKPEDTAVYYCNTVGGVHTNSWGQGTQVTVSS
The molecule B1 gave a dissociation constant Kd of 18.6 nM.

For orientation: Kd means the constant that tells how readily two partners part at equilibrium. A higher Kd goes with lower affinity.
